The record followed here is a protein production outcome set (Wang et al. 2014).

This series can be described thus: label from the status in PepcDB records.
On to “NPDYVEVDRILEVAHTKDAETGEEVTHYLVKWCSLPYEESTWELEEDVDPAKVKEFESLQV”, for which the protein production entry is reported as “not failed”.

As for “NSAAIQEMNREVEAAAKRTSPVFLTGEAGSPFETVARYFHKNGTPWVSPARVEYLIDMPMELLQKAEGGVLYVGDIAQYSRNIQTGITFIIGKAERCRVRVIASCSYAAGSDGISCEEKLAGLFSESVVRIPPLS”, the protein production entry is on record as “failed”.

Turning to “NSDVPENTHLVSKEVQAAFNAKYPQAKDVEWELKGDYAVADFYWDGGEHSAWFNPLSAAWYMTETDVRYENLPEPVLAAHKAGKYADWRVDDVDKLTREGMETLYVIEVEKGESELDLFYSSTGILVKTVVDTGHEEDYDDYLPQPDANGIIAIVKQKYPNATIVEIEREKGLQEVTILDENKEKEVYFNERNEWMGTSWDVQVANLPEAVKKSVMEKYSDYVIDDADYVVTPDNEWYILDLENKQIDKELKVKVDKDGVWL”, the protein production entry is given as “not failed”.

With “NTAPSLTVPECAICLQTCVHPVSLPCKHVFCYLCVKGASWLGKRCALCRQEIPEDFLD”, the protein production result is “not failed”.

As to “NVGVFVLMHGDSTASSMLKTAQELLGTSIGTAMNMPLTMEVQTMYEQLRNQVITQKESLNNGILLLTDMGSLNSFGNMLFEETGIRTKAITMTSTMIVLEAIRMASVGRSLEDIYQNIQLSFESVVREQFRSSLQK”, the protein production entry is listed as “not failed”.

“NVRVITDENWRELLEGDWMIEFYAPWCPACQNLQPEWESFAEWGEDLEVNIAKVDVTEQPGLSGRFIINALPTIYHCKDGEFRRYQGPRTKKDFINFISDKEWKSIEPVSSWF”: the protein production entry was “not failed”.

Regarding “PATPKKIKKEKKVPKLPRKDYWQAAMVIIISSIVLIASLFMISPLSRQKEITVSGNKNAIESQLIEELGIKKSDYLTTLLFQANRFERNLKSKDKWVKEAKLVYHFPNHFTLRVKEYRIIAYRQTDKGYVPILENGTRVDTVNASELPGSFVTINLDQEKEVRELVQKLAKLDKSLVGSIKVISSVNSSSTKDLLLLEMKDNNSVRVPLSEIDTKLPYYSKIKKNLTDGSIVDMEVGIYSTTADIEASIAEHKTTATTESSENS”, the protein production result is reported as “failed”.

For “PCHHRITLDEFYQLFTNNKNIHLIDVRSTKEHQIQNIGGIVLPLDELPQRLHELNPNRLIILYCQSGTRSKMALDILLKAGFASVKYIENGLKGVTDNYNKDMPQ”, the protein production entry was “failed”.

Turning to “PEAERSTISLTRLHATIQNAPGVLGLVCTIIGEAGGNIVNLRMHHRQSDFFDTDIDVEVRDAKHLTNIQAALRACPSVETVDRTR”, the protein production entry is reported as “failed”.

On to “PEKLPYLVELSPDGSDSRDKPKLYRLQLSVTEVGTEKFDDNSIQLFGPGIQPHHCDLTNMDGVVTVTPRSMDAETYVDGQRISETTMLQSGMRLQFGTSHVFKFVDP”, for which the protein production result was “not failed”.

“PETVCWGHVEEVELINDGSGLGFGIVGGKTSGVVVRTIVPGGLADRDGRLQTGDHILKIGGTNVQGMTSEQVAQVLRNCGNSVRMLVARDPAGDISVT”: the protein production entry is recorded as “not failed”.

Turning to “PFKAGKARGLTTEQLNTRLDIDEFETGLMRLAQDSFSTDDYLFQEGQYLDEDTVLSWLARKKTGSDLKKAEKEDKNFKNEGLNPALPSSGSTEEKNESSPIYLASMLEHDYLVRKDKNSIQLGGVMIGLALNSVYYYREKTGDPQKEVEIKDSTLRQQGEKIAQEVINRLRKKDNLKNVPITVALYKQASKTSIVPGNFIAKTEVKAGSTDISNWDDINEKYVFYPADTTTAEKYPDDTEVFKRFKNSIEEYFPNYTGVVGTALYENDEMKKMKIDIPMQFYGKSEVVAFTQFLTGEVMDYYSKSSVDVEVNITSSDGQEAVIIRNAGDKEPTVHIYD”, the protein production result is “failed”.

For the sequence “PGVELRTAADFADDPRPLFELDAETSGDEPGDVDHEFTDYEAWLEETWRHPLLSHELTSVALVDGRPAAFSAARTDGATRYHTGMTGTARAFRGRGLAKLAKNDSLHRARAAGFTEAFTGNDAGNEPMLAINKWFGYEICATEVRYVRELG”, the protein production result was “failed”.

Turning to “PIKMGWLKKQRSIVKNWQQRYFVLRAQQLYYYKDEEDTKPQGCMYLPGCTIKEIATNPEEAGKFVFEIIPASWDQNRMGQDSYVLMASSQAEMEEWVKFLRRVAG”, the protein production entry is reported as “not failed”.

On to “PITFWYGKYIILIPSSYFKSVIDKRLKYIILHEYAHAKNRDTLHLIIFNIFSIIMSYNPLVHIVKRKIIHDNEVEADRFVLNNINKNEFKTYAESIM”, for which the protein production entry is “failed”.

With “PKKIMLVAGHGYNDPGAVGNGTNERDFIRKYITPNIAKYLRHAGHEVALYGGSSQSQDMYQDTAYGVNVGNKKDYGLYWVKSQGYDIVLEIHLDAAGESASGGHVIISSQFNADTIDKSIQDVIKNNLGQIRGVTPRNDLLNVNVSAEININYRLSELGFITNKNDMDWIKKNYDLYSKLIAGAIHGK”, the protein production entry is given as “failed”.

On to “PLKEQKVINTANIKTNSKLDLAEYENGLINIATQQFDTESHVLQLNQYIPEKLIDELVAKVEAPVLTNIIEQDYFGKQNSNELSLSGVMIGLAMSSSVSNEEAMSKGTEVAKQLIEAINKNDKYNKSPITFAIFKQESTSSLKNGTYIASATVQKNDTNLGNWSTIDEKSYSYPSDEFTQAHGEDNTKINNFAKEIKGFSNGDFIPVNAKVSYKKDQMDTLNMNIVIKYNGKTELMALTQLAAQGMLDKLPKDAKVQLQIKSESKIEAVIIKEKNSDKPFVSFL”, for which the protein production result is given as “not failed”.

Turning to “PRLLCTATKQKNSGQNLEEDMGQSEQKADPPATEKTLLEEKVKLEEQLKETVEKYKRALADTENLRQRSQKLVEEAKLYGIQAFCKDLLEVADVLEKATQCVPKEEIKDDNPHLKNLYEGLVMTEVQIQKVFTKHGLLKLNPVGAKFDPYEHEALFHTPVEGKEPGTVALVSKVGYKLHGRTLRPALVGVVKEA”, the protein production entry was “failed”.

As for “PSARDILQQGLDRLGSPEDLASRIDSTLLSPRATEEDVRNLVREASDYGFRCAVLTPVYTVKISGLAEKLGVKLCSVIGFPLGQAPLEVKLVEAQTVLEAGATELDVVPHLSLGPEAVYREVSGIVKLAKSYGAVVKVILEAPLWDDKTLSLLVDSSRRAGADIVKTSTGVYTKGGDPVTVFRLASLAKPLGMGVKASGGIRSGIDAVLAVGAGADIIGTSSAVKVLESFKSLV”, the protein production result was “not failed”.

Turning to “PSEAPERVMVPIANPKTVESLLDLAFIVRGQSSEPLYPLTVAQGTNGDAESEVAKAEKVLAHAVTYAAGASVPIQMLTRLDPNIASGIIRAIEETRITTLVIGWNGKRSTPQLIFGGILDQLLERTEEMVLVSK”, the protein production result was “failed”.

In the case of “PSEPVTDEYLTSVTIGERKPLNDRIQLAEYDLRWPSMFSVAADKIRSALSEKALLVEHVGSTSVPGLAAKLIIDMLLGVTDSADEKSYVLPLEQQGFVLQAREPGWYEHRFFRLKSGDMEWHLHVFSAECEEIDRMLAFRNWLRVHDDDRQRYENVKRTLAARTWKHMQNYADAKSDIVREILGRA”, the protein production entry was “failed”.

Take “PTNIHKIHEVQKKLQEEVSIVLIDIADIIVNPKKENGYSRDLYTLNSLIDSSISETYDNINNTLLSDTRFFLEHMDIIKSQRDILENLYSYVSQLNSTPPQAHILSAFIHKIGYTEFEAETGNLLLEELKRLMISMKNQPLPVDRTEFENRAILFLCLTELKQFLVNRKHAQML”: the protein production entry is “not failed”.

Consider “PVAGPYITFTDAVNETTIMLKWMYIPASNNNTPIHGFYIYYRPTDSDNDSDYKKDMVEGDRYWHSISHLQPETSYDIKMQCFNEGGESEFSNVMICETKAR”, for which the protein production entry is “not failed”.

Turning to “PVRLEGDQVAAAEALVAAVAADSYSTTLLKGVTGSGKTEVYLEAVAECLRRGRQALVLLPEIALTSEFLARVEARFGARPAEWHSGVTATERRRLWRMVSEGQAQFVAGARSALFLPFRDLGLVVVDEEHDTSYKQEEGALYNARDMAVLRASICGCPAVLASATP”, the protein production result was “failed”.

On to “QAAPSQVVVIRQERAGQTSVSLLWQEPEQPNGIILEYEIKYYEKDKEMQSYSTLKAVTTRATVSGLKPGTRYVFQVRARTSAGCGRFSQAMEVETGKP”, for which the protein production entry is recorded as “not failed”.

“QDHYKVLGLSKLRWQATSDEIRFCYRQKVLKHHPDKKKHRGIVMEKEEYFTCITKAYEQVGMSDVK”: the protein production entry is “failed”.

“QERLKITALPLYFEGFLLIKRSGYREYEHYWTELRGTTLFFYTDKKSIIYVDKLDIVDLTCLTEQNSTEKNCAKFTLVLPKEEVQLKTENTESGEEWRGFILTVTELSVPQNVSLLPGQVIKLHEVLEREKKRRIE”: the protein production result is “not failed”.

For the sequence “QGLLRAIPSITEDMPRLPTIPGNPPSALINHQGCPFRDRCDYRLARCQAETPKFMPLNGRQSIACHVKAQSSISLIHQSA”, the protein production result is “failed”.

Turning to “QHTLKQFAADSALTTTTPLCSEVPLFDINALGDWTYLGTSLPAKFAKLFASILHCIDDEYFLITPVEKVRVQVEDAPLLIVDFERAQPHSLLNVSTSIGTLHHNVDIKQMKLTDDSVYLPLERGLWGKLGRACYYNFVNEFNLSDLNEQ”, the protein production result is recorded as “not failed”.

As for “QIRMIAAIAHMGGHDLKDDRVKAMVYACLTGNAAKDILKDIGIVVGRKLTENAIKSISGKTITKINQAVGFRLLTKFGEKG”, the protein production result is “failed”.

For the sequence “QKGWFPASHVKLLGPSSERATPAFHPVCQVIAMYDYAANNEDELSFSKGQLINVMNKDDPDWWQGEINGVTGLFPSNYVKMTTDS”, the protein production result is “not failed”.

With “QKSVRVGISFDISEQKEGEALFEIISQNVTDVIWVYDLKLNRFRYISPSVEAMRGLPKEEAEAMSLEETLTPSSYQRAMQILEGERLRLSNPSHREIKIFSEFFDQYTHDGEVIETEVTARVVQDEG”, the protein production result was “failed”.

On to “QKVEFRKRMEKEVSDFIQDSGQIKKKFQPMNKIERSILHDVVEVAGLTSFSFGEDDDCRYVMIFKKEFAPSDEELDSYRRG”, for which the protein production result was “not failed”.

For the sequence “QLTVRRVAEHDLAALSEKAGGPVSIGTRDRLQVVYVDTIHDRGNNGAKPDIGSSRPLLHTAMGRALLYTFDAAERELLMPLLLEQEPQQGDAARAALEEAFAQIARTGFCTSYGSWRPELAGLAAPLRYRAGDLPFAINLTLPIDAVKDGRAEQEFGPYLARLAQSIDRRLGVDV”, the protein production result is “failed”.

As to “QNHFHVFVGDLSPQITTEDIKAAFAPFGRISDARVVKDMATGKSKGYGFVSFFNKWDAENAIQQMGGQWLGGRQIRTNWATRKPPAPKSTYES”, the protein production entry is listed as “failed”.

On to “QSNQAWFGNDAFFNAVCFNEAVAKQLNLPKPTSWEDLTKPVYKGHIVMPNPASSGTGYMQVSAWLQNMGEDQAWNYMRDLDKNIAHYTHSGSKPCVQAGMGEVAIGISMASRGAKLKTQGAPLAVITPKGIGWESEAVGLVKESDAAKRVVDWSISKAANELYVEMYPVVGH”, for which the protein production result was “failed”.

Take “QSYSGGIRLDTLFIDEGFGSLDPESLDLAIQTLVDLQQTGRMIGVISHVSELKEQMALRIDVEPSRFGSTVSVKSQMLISK”: the protein production result is on record as “failed”.

On to “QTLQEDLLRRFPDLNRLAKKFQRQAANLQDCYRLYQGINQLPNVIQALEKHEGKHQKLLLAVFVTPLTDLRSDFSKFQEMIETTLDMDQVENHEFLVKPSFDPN”, for which the protein production entry is listed as “failed”.

With “QVSDEDVMLMIRQGAKKGVFESVEYEMISRIFRMSDKRASALMTPRNEIEWLDLERPDEELVARIKASGRSRFPVAKGSLDELQGVVRSLDLVNFSLSSKGSIREAIRASMKPPLFVPESVPAFHVLELFKKNRAHMALVIDEHGSVQGAITLTDVLESIVGDVPADDMEGD”, the protein production result was “failed”.
